From EP4786494A1 (Nanjing Leads Biolabs Co., Ltd., dated 2026) come the findings set out here.

Test [1] deals with T1, human FGFR2-his protein (huFGFR2-his) (human).
T1 construct: Extracellular region of human FGFR2 (NP_001138385.1) with a 6xHis tag; also called human FGFR2 extracellular protein
T1 chain: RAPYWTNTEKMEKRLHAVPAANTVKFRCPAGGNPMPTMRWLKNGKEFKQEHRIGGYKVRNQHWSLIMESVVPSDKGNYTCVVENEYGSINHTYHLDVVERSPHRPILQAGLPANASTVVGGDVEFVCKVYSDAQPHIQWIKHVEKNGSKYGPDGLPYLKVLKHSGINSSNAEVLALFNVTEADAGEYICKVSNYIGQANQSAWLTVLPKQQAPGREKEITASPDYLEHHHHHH
The test can be described thus: ELISA screen of hybridoma subclones on human FGFR2-his. For orientation: ELISA stands for enzyme-linked immunosorbent assay.

For test [2], the target named is T2, human FGFR3 protein (Sino Biological, Cat. No. 16486-H08H) (human, UniProt P22607-2 23-377).
T2 construct: Bought recombinant protein; construct not described
T2 sequence (looked up): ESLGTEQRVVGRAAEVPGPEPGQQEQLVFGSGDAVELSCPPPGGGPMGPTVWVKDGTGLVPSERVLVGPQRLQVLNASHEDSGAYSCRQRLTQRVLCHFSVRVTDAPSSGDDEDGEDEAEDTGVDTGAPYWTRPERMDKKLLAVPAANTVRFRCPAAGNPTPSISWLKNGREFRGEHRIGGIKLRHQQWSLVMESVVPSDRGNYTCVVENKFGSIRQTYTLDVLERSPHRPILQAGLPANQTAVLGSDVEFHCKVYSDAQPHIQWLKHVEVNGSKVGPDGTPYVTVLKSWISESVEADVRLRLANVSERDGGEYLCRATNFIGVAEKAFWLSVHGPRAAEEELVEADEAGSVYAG
The test can be described thus: ELISA, FGFR3 coated.

The target of test [3] is T3, human FGFR4 protein (Sino Biological, Cat. No. 10538-H08H) (human, UniProt P22455 22-369).
T3 construct: Bought recombinant protein; construct not described
The test can be described thus: ELISA, FGFR4 coated.

Test [4] deals with T4, human FGFR1 protein (ACRO Biosystems, Cat. No. FG1-H5223) (human, UniProt P11362-14 22-285).
T4 construct: Bought recombinant protein; construct not described
T4 sequence (looked up): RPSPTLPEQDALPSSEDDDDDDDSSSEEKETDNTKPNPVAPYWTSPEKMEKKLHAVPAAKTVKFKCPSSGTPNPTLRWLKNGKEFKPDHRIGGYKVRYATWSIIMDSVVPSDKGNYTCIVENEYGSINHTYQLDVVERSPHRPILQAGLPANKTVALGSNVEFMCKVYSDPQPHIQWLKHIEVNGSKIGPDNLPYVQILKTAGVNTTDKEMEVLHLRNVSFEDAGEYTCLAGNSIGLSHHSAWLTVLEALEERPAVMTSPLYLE
Kind of test: ELISA, FGFR1 coated.

B1: mouse antibody A1B2 (antibody, V domains shown)
VH: EVQLQQSGAELVRPGASVKLSCTASGFNIKDYYMHWVKQRPEQGLEWIGRIDPEDGDTEYAPKFQGKATMTADTSSNTAYLQLSSLTSEDTAVYYCTTYYYVSTYEDYWGQGTTLTVSS
VL: QIVLTQSPAIMSASLGEEITLTCSASSSVSHMHWYQQKSGTSPKLLIYSTSNLASGVPSRFSGSGSGTFYSLTISSVEAEDAADYYCHHWSSWTFGGGTKLEIK
notes: Antibody as produced by the hybridoma
As for B1, the binding result in test [1] is reported as “binds”.

B2: antibody A1B2 (murine chimeric anti-FGFR2 antibody) (antibody, human IgG1, kappa, V domains shown)
VH: EVQLQQSGAELVRPGASVKLSCTASGFNIKDYYMHWVKQRPEQGLEWIGRIDPEDGDTEYAPKFQGKATMTADTSSNTAYLQLSSLTSEDTAVYYCTTYYYVSTYEDYWGQGTTLTVSS
VL: QIVLTQSPAIMSASLGEEITLTCSASSSVSHMHWYQQKSGTSPKLLIYSTSNLASGVPSRFSGSGSGTFYSLTISSVEAEDAADYYCHHWSSWTFGGGTKLEIKR
Regarding B2, the binding result in test [2], in test [3] and in test [4] was “no binding” each time.

B3: antibody D12D8 (murine chimeric anti-FGFR2 antibody) (antibody, human IgG1, kappa, V domains shown)
VH: QVQLQQSGAELARPGASVKLSCKASGYTFTNYGISWVKQRTGQGLEWIGEIYPRSGNTYYNEKFKGKATLTADKSSSTAYMELRSLTSEDSAVYFCARGDYSNSDYWGQGTTLTVSS
VL: DIQMTQTTSSLSASLGDRVTISCRASQDITDHLNWYQQKPDGTVKLLIYYTSRLHSGVPSRFSGSGSGTDYSLTISNLEQEDIATYFCQQGNTLPRTFGGGTKLEIKR
On to B3, for which the binding result in test [2], in test [3] and in test [4] was “no binding” throughout.

B4: antibody A5H12 (murine chimeric anti-FGFR2 antibody) (antibody, human IgG1, kappa, V domains shown)
VH: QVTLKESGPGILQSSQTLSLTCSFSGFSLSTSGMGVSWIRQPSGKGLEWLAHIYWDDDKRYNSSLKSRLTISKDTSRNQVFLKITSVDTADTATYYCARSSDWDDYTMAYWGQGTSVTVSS
VL: DIVLTQSPASLAVSLGQRATISCRASESIDDFGISFMHWYQQKPGQPPKLLIYRASNLESGIPARFSGSGSRADFTLTINPVETDDVATYYCQQSNKDPPTFGAGTNLELKR
Take B4: the binding result in test [3] and in test [4] was “no binding” throughout.

B5: mouse antibody A5H12 (antibody, V domains shown)
VH: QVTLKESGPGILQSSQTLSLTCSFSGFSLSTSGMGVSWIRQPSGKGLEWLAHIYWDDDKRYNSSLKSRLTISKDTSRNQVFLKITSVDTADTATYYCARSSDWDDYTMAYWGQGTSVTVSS
VL: DIVLTQSPASLAVSLGQRATISCRASESIDDFGISFMHWYQQKPGQPPKLLIYRASNLESGIPARFSGSGSRADFTLTINPVETDDVATYYCQQSNKDPPTFGAGTNLELK
notes: as for B1
B5: the binding result in test [1] was “binds”.

B6: mouse antibody F6B6 (antibody, V domains shown)
VH: QVQLKQSGPGLVQPSQSLSITCTVSGFSLTNYGVHWVRQSPGKGLEWLGVIWSDGSTDYDAAFISRLSISTDNSKSQVFFKMNSLQAADTAIYYCARKGDYDYDNYAMDYWGQGTSVTVSS
VL: DVVITQSPATLSVTPGDSVSLSCRASQSISNNLHWYQQKSHESPRLLIKYASQSISGIPSRFSGSGSGTDFTLSINSVETEDFGMYFCQQSNSWPLTFGAGTKLELK
notes: as for B1
With B6, the binding result in test [1] is given as “binds”.

B7: antibody F6B6 (murine chimeric anti-FGFR2 antibody) (antibody, human IgG1, kappa, V domains shown)
VH: QVQLKQSGPGLVQPSQSLSITCTVSGFSLTNYGVHWVRQSPGKGLEWLGVIWSDGSTDYDAAFISRLSISTDNSKSQVFFKMNSLQAADTAIYYCARKGDYDYDNYAMDYWGQGTSVTVSS
VL: DVVITQSPATLSVTPGDSVSLSCRASQSISNNLHWYQQKSHESPRLLIKYASQSISGIPSRFSGSGSGTDFTLSINSVETEDFGMYFCQQSNSWPLTFGAGTKLELKR
For B7, the binding result in test [2], in test [3] and in test [4] was “no binding” each time.

B8: mouse antibody F3F8 (antibody, V domains shown)
VH: QVTLKESGPGILQSSQTLSLTCSFSGFSLSTSGMGVSWIRQPSGKGLEWLAHIYWDNDKRYNPSLKSRLTISKDTSRNQVFLKITSVDTADTATYYCTRSDSSGSFDYWGQGTTLTVSS
VL: DIQMTQTTSSLSASLGDRVTISCRASQDISNYLNWYQQKPDGTVKFLIYYTSTLHSGVPSRFSGSGSGTDYSLTISNLEQEDIATYFCQQGNTLPWTFGGGTKLEIK
notes: as for B1
Consider B8, for which the binding result in test [1] is “binds”.

B9: mouse antibody D12D8 (antibody, V domains shown)
VH: QVQLQQSGAELARPGASVKLSCKASGYTFTNYGISWVKQRTGQGLEWIGEIYPRSGNTYYNEKFKGKATLTADKSSSTAYMELRSLTSEDSAVYFCARGDYSNSDYWGQGTTLTVSS
VL: DIQMTQTTSSLSASLGDRVTISCRASQDITDHLNWYQQKPDGTVKLLIYYTSRLHSGVPSRFSGSGSGTDYSLTISNLEQEDIATYFCQQGNTLPRTFGGGTKLEIK
notes: as for B1
Consider B9, for which the binding result in test [1] is recorded as “binds”.

B10: antibody F3F8 (murine chimeric anti-FGFR2 antibody) (antibody, human IgG1, kappa, V domains shown)
VH: QVTLKESGPGILQSSQTLSLTCSFSGFSLSTSGMGVSWIRQPSGKGLEWLAHIYWDNDKRYNPSLKSRLTISKDTSRNQVFLKITSVDTADTATYYCTRSDSSGSFDYWGQGTTLTVSS
VL: DIQMTQTTSSLSASLGDRVTISCRASQDISNYLNWYQQKPDGTVKFLIYYTSTLHSGVPSRFSGSGSGTDYSLTISNLEQEDIATYFCQQGNTLPWTFGGGTKLEIKR
As for B10, the binding result in test [2], in test [3] and in test [4] was “no binding” throughout.

B11: mouse antibody E3A1 (antibody, V domains shown)
VH: QVTLKESGPGILQSSQTLSLTCSFSGFSLTTSGMGVSWIRQPSGKGLEWLAHIYWDDDKRYNPSLKSRLTISKDTSRNQVFLKITSVDTADTATYYCAGCDSSGSFDYWGQGTTLTVSS
VL: DIQMTQTTSSLSASLGDRVTITCRASQDISNYLNWYQQKPDGTVKLLIYYRSRLHSGVPSRFSGSGSGPEYSLTISNLEQEDIATYFCQQGNTLPWTFGGGTKLEIK
notes: as for B1
B11: in test [1], the binding result is given as “binds”.

B12: antibody E3A1 (murine chimeric anti-FGFR2 antibody) (antibody, human IgG1, kappa, V domains shown)
VH: QVTLKESGPGILQSSQTLSLTCSFSGFSLTTSGMGVSWIRQPSGKGLEWLAHIYWDDDKRYNPSLKSRLTISKDTSRNQVFLKITSVDTADTATYYCAGCDSSGSFDYWGQGTTLTVSS
VL: DIQMTQTTSSLSASLGDRVTITCRASQDISNYLNWYQQKPDGTVKLLIYYRSRLHSGVPSRFSGSGSGPEYSLTISNLEQEDIATYFCQQGNTLPWTFGGGTKLEIKR
For the molecule B12, the binding result in test [3] and in test [4] was “no binding” in each case.

B13: mouse antibody G11B8 (antibody, V domains shown)
VH: EVQLQQSGPELVKPGASVKIPCKASGYTFTDYNMDWVKQSHGKSLEWIGDINPKNGETFYNQKFKGKATLTVDRSSNTAYMELRSLTSEDTAVYFCAKRDLNWYFDYWGQGTTLTVSS
VL: DIQMTQSSSYLSVSLGGRVTITCKASDHINNWLAWYQQKPGNAPRLLISGATSLETGVPSRFSGSGSGKDYTLSITSLQTEDVATYYCQQYWSTPWTFGGGTKLEIK
notes: as for B1
With B13, the binding result in test [1] is “binds”.

B14: antibody G11B8 (murine chimeric anti-FGFR2 antibody) (antibody, human IgG1, kappa, V domains shown)
VH: EVQLQQSGPELVKPGASVKIPCKASGYTFTDYNMDWVKQSHGKSLEWIGDINPKNGETFYNQKFKGKATLTVDRSSNTAYMELRSLTSEDTAVYFCAKRDLNWYFDYWGQGTTLTVSS
VL: DIQMTQSSSYLSVSLGGRVTITCKASDHINNWLAWYQQKPGNAPRLLISGATSLETGVPSRFSGSGSGKDYTLSITSLQTEDVATYYCQQYWSTPWTFGGGTKLEIKR
On to B14, for which the binding result in test [2], in test [3] and in test [4] was “no binding” in each case.

B15: antibody H3F7-a (murine chimeric anti-FGFR2 antibody) (antibody, human IgG1, kappa, V domains shown)
VH: EVQLQQSGPELVKPGASVKIPCKASGYTFTDYNMDWVKQSHGKSLEWIGDINPKNGETFYNQKFKGKATLTVDRSSSTAYMELRSLTSEDTAVYFCAKRDLNWYFDYWGQGTTLTVSS
VL: DIQMTQSSSYLSVSLGGRVTITCKASDHINNWLAWYQQKPGNAPRLLISGATSLETGVPSRFSGSGSGKDYTLSITSLQTEDVATYYCQQYWSTPWTFGGGTKLEIKR
With B15, the binding result in test [2], in test [3] and in test [4] was “no binding” in each case.

B16: mouse antibody H3F7-a (antibody, V domains shown)
VH: EVQLQQSGPELVKPGASVKIPCKASGYTFTDYNMDWVKQSHGKSLEWIGDINPKNGETFYNQKFKGKATLTVDRSSSTAYMELRSLTSEDTAVYFCAKRDLNWYFDYWGQGTTLTVSS
VL: DIQMTQSSSYLSVSLGGRVTITCKASDHINNWLAWYQQKPGNAPRLLISGATSLETGVPSRFSGSGSGKDYTLSITSLQTEDVATYYCQQYWSTPWTFGGGTKLEIK
notes: as for B1
B16: the binding result in test [1] was “binds”.
